Reference: article PMC5856423, “Structural basis for recognition of the central conserved region of RSV G by neutralizing human antibodies” (PLoS Pathogens, 2018)

T1: 45-residue synthetic peptide encompassing the subtype A RSV G central conserved region (G peptide) (Human respiratory syncytial virus A …, not fully specified; N-terminal biotin coupling as the last step in synthesis; disulfide bonds of the cystine noose formed by oxidative folding)
T1 construct: attachment glycoprotein G of human RSV subtype A, central conserved region, residues Asn153-Lys197 (45 residues); also called RSV G peptide; subtype A RSV G peptide; source: synthetic peptide (Fmoc solid phase, HPLC), oxidatively folded
T1 chain: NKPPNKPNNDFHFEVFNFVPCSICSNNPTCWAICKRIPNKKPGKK

T2: 32-residue peptide encompassing RSV G Phe165-Lys196, subtype B (Human respiratory syncytial virus …, UniProt O36633, strain)
T2 construct: attachment glycoprotein G of human RSV subtype B, residues Phe165-Lys196; The tested set is a series of alanine mutants of this peptide; source: covalently linked peptides on Pepscan cards
T2 chain: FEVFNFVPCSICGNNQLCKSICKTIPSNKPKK


Tests used:
[1] = target: secreted form of RSV G from strain A2 (sG) (human respiratory syncytial virus strain A2)
[2] = target: reduced and alkylated form of the G peptide (human respiratory syncytial virus subtype A) (UniProt P03423); experiment: SPR; G peptide (or its reduced and alkylated form) immobilised on a CM5 chip by primary-amine coupling (25 RU), Biacore X100; Fab in serial 2-fold dilutions in HBS-P+ (CB002.5 25 nM-98 pM, CB017.5 100 nM-195 pM; on the reduced and alkylated peptide CB002.5 1,000-1.95 nM, CB017.5 62.5-1.95 nM); 1:1 binding model
[3] = target: T3, secreted form of RSV G from strain A2 (sG) (Human respiratory syncytial virus A, …, UniProt P03423, strain); experiment: SPR; sG captured by its C-terminal 8xHis tag on an NTA sensor chip (60-150 RU), Biacore X100; Fab in serial 3-fold dilutions from 300 nM to 46.5 pM in HBS-P+; double-reference subtracted, 1:1 binding model; conditions: both partners purified
T3 construct: attachment glycoprotein G of human respiratory syncytial virus strain A2, secreted form (sG); also called RSV sG; wild-type RSV sG from strain A2; source: FreeStyle 293-F, transfected, purified from supernatant (Strep-Tactin, SEC); not shown: 8xHis, C-terminal, kept

[4] = target: T1, 45-residue synthetic peptide …; experiment: SPR; G peptide (or its reduced and alkylated form) immobilised on a CM5 chip by primary-amine coupling (25 RU), Biacore X100; Fab in serial 2-fold dilutions in HBS-P+ (CB002.5 25 nM-98 pM, CB017.5 100 nM-195 pM; on the reduced and alkylated peptide CB002.5 1,000-1.95 nM, CB017.5 62.5-1.95 nM); 1:1 binding model; conditions: both partners purified
[5] = target: T2, 32-residue peptide encompassing RSV G …; experiment: peptide or protein array; Pepscan-based ELISA: peptides covalently linked in the wells of cards, mAb at 1-10 ng/mL overnight at 4°C in PBS with horse serum, OVA and Tween 80; HRP-linked anti-human IgG, ABTS; conditions: both partners purified

| Binder | IC50 of neutralization of RSV (rgRSV224) infection of primary HBECs at an air-liquid interface, in the absence of complement; pair that is blocked: RSV G and CX3CR1 [1] [nM] | Kd [2] [nM] | Kd [3] [nM] | Kd [4] [nM] | binding result [5] |
| --- | --- | --- | --- | --- | --- |
| CB002.5 IgG (antibody, V domains shown) VH: QVQLQESGPRLVKPSETLSLTCTVSGGSTSSYFWNWIRQPPGKGLEWIGYIYGSGSADYNPSLKSRVTISIDTSKTQFSLKLTSVTAADTAVYYCARSGFCSDDACYRRGSWFDPWGQGTLVTVSS VL: DIQMTQSPSSLSASVGDRVTITCRASQSIDNYLNWYQQKPGKAPKLLIYAASGLQSGVPSRFSGSGSGTEFTLTVSSLHPEDFATYYCQQSYSTLTWTFGQGTKVEIK | 4.7 | – | – | – | – |
| Fab CB002.5 (Fab, V domains shown, human; Fab cut with papain from full-length IgG1; source: IgG from FreeStyle 293-F or PER.C6 cells, transfected, Protein A; Fab by papain digestion, purified (Protein A flow-through, SEC)) VH: QVQLQESGPRLVKPSETLSLTCTVSGGSTSSYFWNWIRQPPGKGLEWIGYIYGSGSADYNPSLKSRVTISIDTSKTQFSLKLTSVTAADTAVYYCARSGFCSDDACYRRGSWFDPWGQGTLVTVSS VL: DIQMTQSPSSLSASVGDRVTITCRASQSIDNYLNWYQQKPGKAPKLLIYAASGLQSGVPSRFSGSGSGTEFTLTVSSLHPEDFATYYCQQSYSTLTWTFGQGTKVEIK | – | 18000 | 3.3 | 0.52 | – |
| CB017.5 IgG (antibody, V domains shown, as the light chain of m2 (PDB 6BLH); full-length IgG1; also called antibody CB017.5; source: FreeStyle 293-F or PER.C6 cells, transfected, purified (Protein A)) VH: QVQLVESGGGVVQPGRSLRLSCSASGFTFSVYAMHWVRQAPGQGLEWVAIIWYDGSNKYYADSVKGRFTISRDNSKETLYLQMNSLRVEDTAVYYCARDPIVGHTRDGLDVWGQGTTVTVSS VL: SYELTQPPSVSVSPGQTARVTCSGDAMAEQYTYWYQQKPGQAPVLIIFKDTERPSGIPERFSGSSSGTTVTLTISGVQTEDEADYYCQSTDSSGTSWVFGGGTKLTVL | 45.4 | – | – | – | binds |
| Fab CB017.5 (Fab, V domains shown, human; Fab cut with papain from full-length IgG1; source: IgG from FreeStyle 293-F or PER.C6 cells, transfected, Protein A; Fab by papain digestion, purified (Protein A flow-through, SEC)) VH: QVQLVESGGGVVQPGRSLRLSCSASGFTFSVYAMHWVRQAPGQGLEWVAIIWYDGSNKYYADSVKGRFTISRDNSKETLYLQMNSLRVEDTAVYYCARDPIVGHTRDGLDVWGQGTTVTVSS VL: SYELTQPPSVSVSPGQTARVTCSGDAMAEQYTYWYQQKPGQAPVLIIFKDTERPSGIPERFSGSSSGTTVTLTISGVQTEDEADYYCQSTDSSGTSWVFGGGTKLTVL | – | 27 | 2.4 | 4.1 | – |
